Experimental findings from US20260167699A1 (Chugai, published 2026) are described below.

The target of the experiment is T1, FcγRIIIa (human, UniProt P08637 17-208).
T1 construct: extracellular domain; also called 3a; FcγRIIIa extracellular domain
Nature of the experiment: SPR (Biacore). (In general: In SPR one partner is held on a chip, and binding of the other changes the refractive index at the surface.)
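Further: antibody variants captured on an SPR sensor chip, with FcγRIIIa passed over as analyte in HBS-EP+ buffer at 25 °C.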

T1 sequence (P08637 other isoform, or with tags, fused parts or gaps): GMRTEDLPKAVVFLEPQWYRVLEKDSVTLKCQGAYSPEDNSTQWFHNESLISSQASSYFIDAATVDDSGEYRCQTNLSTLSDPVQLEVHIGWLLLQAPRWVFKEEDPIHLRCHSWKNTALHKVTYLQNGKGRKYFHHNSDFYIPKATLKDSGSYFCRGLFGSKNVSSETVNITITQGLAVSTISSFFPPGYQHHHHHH

B1: GpH7-A5/GpH7-B3 variant I332_12R/GpL16-k0 (antibody, human IgG1, kappa)
heavy 1: not shown
heavy 2: not shown
light: DIVMTQSPLSLPVTPGEPASISCQASESLVHSNRNTYLHWYLQKPGQSPQLLIYKVSNRFSGVPDRFSGSGSGTDFTLKISRVEAEDVGVYYCSQNTHVPPTFGQGTKVEIERTVAAPSVFIFPPSDEQLKSGTASVVCLLNNFYPREAKVQWKVDNALQSGNSQESVTEQDSKDSTYSLSSTLTLSKADYEKHKVYACEVTHQGLSSPVTKSFNRGEC
notes: copies: 1 + 1 + 2
With B1, the “He/Con 3a” value is 78.1 % of GpH7-A5/GpH7-B3/GpL16-k0.

B2: GpH7-A5/GpH7-B3 variant H268_12R/GpL16-k0 (antibody, human IgG1, kappa)
heavy 1: not shown
heavy 2: not shown
light: B1 light
notes: copies: 1 + 1 + 2
Regarding B2, the “He/Con 3a” value was 76 % of GpH7-A5/GpH7-B3/GpL16-k0.

B3: GpH7-A5/GpH7-B3 variant H268_03V/GpL16-k0 (antibody, human IgG1, kappa)
heavy 1: not shown
heavy 2: not shown
light: B1 light
notes: copies: 1 + 1 + 2
In the case of B3, the “He/Con 3a” value was 91.4 % of GpH7-A5/GpH7-B3/GpL16-k0.

B4: GpH7-A5/GpH7-B3 variant H268_09D/GpL16-k0 (antibody, human IgG1, kappa)
heavy 1: not shown
heavy 2: not shown
light: B1 light
notes: copies: 1 + 1 + 2
With B4, the “He/Con 3a” value was 195 % of GpH7-A5/GpH7-B3/GpL16-k0.

B5: GpH7-A5/GpH7-B3 variant I332_06M/GpL16-k0 (antibody, human IgG1, kappa)
heavy 1: not shown
heavy 2: not shown
light: B1 light
notes: copies: 1 + 1 + 2
Consider B5, for which the “He/Con 3a” value was 92.5 % of GpH7-A5/GpH7-B3/GpL16-k0.

B6: GpH7-A5/GpH7-B3 variant H268_04F/GpL16-k0 (antibody, human IgG1, kappa)
heavy 1: not shown
heavy 2: not shown
light: B1 light
notes: copies: 1 + 1 + 2
For the molecule B6, the “He/Con 3a” value was 96 % of GpH7-A5/GpH7-B3/GpL16-k0.

B7: GpH7-A5/GpH7-B3 variant I336_14T/GpL16-k0 (antibody, human IgG1, kappa)
heavy 1: not shown
heavy 2: not shown
light: B1 light
notes: copies: 1 + 1 + 2
Turning to B7, the “He/Con 3a” value is 103 % of GpH7-A5/GpH7-B3/GpL16-k0.

B8: GpH7-A5/GpH7-B3 variant I336_01G/GpL16-k0 (antibody, human IgG1, kappa)
heavy 1: not shown
heavy 2: not shown
light: B1 light
notes: copies: 1 + 1 + 2
As for B8, the “He/Con 3a” value is 94.6 % of GpH7-A5/GpH7-B3/GpL16-k0.

B9: GpH7-A5/GpH7-B3 variant I336_02A/GpL16-k0 (antibody, human IgG1, kappa)
heavy 1: not shown
heavy 2: not shown
light: B1 light
notes: copies: 1 + 1 + 2
As for B9, the “He/Con 3a” value was 106 % of GpH7-A5/GpH7-B3/GpL16-k0.

B10: GpH7-A5/GpH7-B3 variant I332_03V/GpL16-k0 (antibody, human IgG1, kappa)
heavy 1: not shown
heavy 2: not shown
light: B1 light
notes: copies: 1 + 1 + 2
With B10, the “He/Con 3a” value is 85.2 % of GpH7-A5/GpH7-B3/GpL16-k0.

B11: GpH7-A5/GpH7-B3 variant I336_03V/GpL16-k0 (antibody, human IgG1, kappa)
heavy 1: not shown
heavy 2: not shown
light: B1 light
notes: copies: 1 + 1 + 2
As to B11, the “He/Con 3a” value was 107 % of GpH7-A5/GpH7-B3/GpL16-k0.

B12: GpH7-A5/GpH7-B3 variant I332_18N/GpL16-k0 (antibody, human IgG1, kappa)
heavy 1: not shown
heavy 2: not shown
light: B1 light
notes: copies: 1 + 1 + 2
For B12, the “He/Con 3a” value was 84.9 % of GpH7-A5/GpH7-B3/GpL16-k0.

B13: GpH7-A5/GpH7-B3 variant H268_05P/GpL16-k0 (antibody, human IgG1, kappa)
heavy 1: not shown
heavy 2: not shown
light: B1 light
notes: copies: 1 + 1 + 2
For the molecule B13, the “He/Con 3a” value is 75.6 % of GpH7-A5/GpH7-B3/GpL16-k0.

B14: GpH7-A5/GpH7-B3 variant I332_15Y/GpL16-k0 (antibody, human IgG1, kappa)
heavy 1: not shown
heavy 2: not shown
light: B1 light
notes: copies: 1 + 1 + 2
As to B14, the “He/Con 3a” value is 92.4 % of GpH7-A5/GpH7-B3/GpL16-k0.

B15: GpH7-A5/GpH7-B3 variant K326_06M/GpL16-k0 (antibody, human IgG1, kappa)
heavy 1: not shown
heavy 2: not shown
light: B1 light
notes: copies: 1 + 1 + 2
Take B15: the “He/Con 3a” value is 127 % of GpH7-A5/GpH7-B3/GpL16-k0.

B16: GpH7-A5/GpH7-B3 variant I332_10E/GpL16-k0 (antibody, human IgG1, kappa)
heavy 1: not shown
heavy 2: not shown
light: B1 light
notes: copies: 1 + 1 + 2
With B16, the “He/Con 3a” value was 213 % of GpH7-A5/GpH7-B3/GpL16-k0.

B17: GpH7-A5/GpH7-B3 variant I332_05P/GpL16-k0 (antibody, human IgG1, kappa)
heavy 1: not shown
heavy 2: not shown
light: B1 light
notes: copies: 1 + 1 + 2
For B17, the “He/Con 3a” value was 56.3 % of GpH7-A5/GpH7-B3/GpL16-k0.

B18: GpH7-A5/GpH7-B3 variant I336_18N/GpL16-k0 (antibody, human IgG1, kappa)
heavy 1: not shown
heavy 2: not shown
light: B1 light
notes: copies: 1 + 1 + 2
With B18, the “He/Con 3a” value was 99.4 % of GpH7-A5/GpH7-B3/GpL16-k0.

B19: GpH7-A5/GpH7-B3 variant H268_11K/GpL16-k0 (antibody, human IgG1, kappa)
heavy 1: not shown
heavy 2: not shown
light: B1 light
notes: copies: 1 + 1 + 2
As for B19, the “He/Con 3a” value was 81.6 % of GpH7-A5/GpH7-B3/GpL16-k0.

B20: GpH7-A5/GpH7-B3 variant I332_08L/GpL16-k0 (antibody, human IgG1, kappa)
heavy 1: not shown
heavy 2: not shown
light: B1 light
notes: copies: 1 + 1 + 2
On to B20, for which the “He/Con 3a” value is 76 % of GpH7-A5/GpH7-B3/GpL16-k0.

B21: GpH7-A5/GpH7-B3 variant I336_13S/GpL16-k0 (antibody, human IgG1, kappa)
heavy 1: not shown
heavy 2: not shown
light: B1 light
notes: copies: 1 + 1 + 2
B21: the “He/Con 3a” value is 97.1 % of GpH7-A5/GpH7-B3/GpL16-k0.

B22: GpH7-A5/GpH7-B3 variant H268_10E/GpL16-k0 (antibody, human IgG1, kappa)
heavy 1: not shown
heavy 2: not shown
light: B1 light
notes: copies: 1 + 1 + 2
As to B22, the “He/Con 3a” value was 184 % of GpH7-A5/GpH7-B3/GpL16-k0.

B23: GpH7-A5/GpH7-B3 variant K326_05P/GpL16-k0 (antibody, human IgG1, kappa)
heavy 1: not shown
heavy 2: not shown
light: B1 light
notes: copies: 1 + 1 + 2
For B23, the “He/Con 3a” value is 117 % of GpH7-A5/GpH7-B3/GpL16-k0.

B24: GpH7-A5/GpH7-B3 variant H268_02A/GpL16-k0 (antibody, human IgG1, kappa)
heavy 1: not shown
heavy 2: not shown
light: B1 light
notes: copies: 1 + 1 + 2
As to B24, the “He/Con 3a” value was 121 % of GpH7-A5/GpH7-B3/GpL16-k0.

B25: GpH7-A5/GpH7-B3 variant I332_02A/GpL16-k0 (antibody, human IgG1, kappa)
heavy 1: not shown
heavy 2: not shown
light: B1 light
notes: copies: 1 + 1 + 2
Take B25: the “He/Con 3a” value is 103 % of GpH7-A5/GpH7-B3/GpL16-k0.

B26: GpH7-A5/GpH7-B3 variant H268_18N/GpL16-k0 (antibody, human IgG1, kappa)
heavy 1: not shown
heavy 2: not shown
light: B1 light
notes: copies: 1 + 1 + 2
As to B26, the “He/Con 3a” value was 103 % of GpH7-A5/GpH7-B3/GpL16-k0.

B27: GpH7-A5/GpH7-B3 variant H268_07I/GpL16-k0 (antibody, human IgG1, kappa)
heavy 1: not shown
heavy 2: not shown
light: B1 light
notes: copies: 1 + 1 + 2
For B27, the “He/Con 3a” value was 84.1 % of GpH7-A5/GpH7-B3/GpL16-k0.

B28: GpH7-A5/GpH7-B3 variant I336_12R/GpL16-k0 (antibody, human IgG1, kappa)
heavy 1: not shown
heavy 2: not shown
light: B1 light
notes: copies: 1 + 1 + 2
Turning to B28, the “He/Con 3a” value was 88.8 % of GpH7-A5/GpH7-B3/GpL16-k0.

B29: GpH7-A5/GpH7-B3 variant I336_06M/GpL16-k0 (antibody, human IgG1, kappa)
heavy 1: not shown
heavy 2: not shown
light: B1 light
notes: printed 1336_06M, read as I336_06M; also called 1336_06M; copies: 1 + 1 + 2
With B29, the “He/Con 3a” value is 104 % of GpH7-A5/GpH7-B3/GpL16-k0.
